Measurements reported in patent US20250092426, “CAS ENDONUCLEASES AND RELATED METHODS” (Flagship Pioneering Innovations VII, LLC, published 2025).

Target: T1, CasEnd-20 (synthetic construct)
T1 chain: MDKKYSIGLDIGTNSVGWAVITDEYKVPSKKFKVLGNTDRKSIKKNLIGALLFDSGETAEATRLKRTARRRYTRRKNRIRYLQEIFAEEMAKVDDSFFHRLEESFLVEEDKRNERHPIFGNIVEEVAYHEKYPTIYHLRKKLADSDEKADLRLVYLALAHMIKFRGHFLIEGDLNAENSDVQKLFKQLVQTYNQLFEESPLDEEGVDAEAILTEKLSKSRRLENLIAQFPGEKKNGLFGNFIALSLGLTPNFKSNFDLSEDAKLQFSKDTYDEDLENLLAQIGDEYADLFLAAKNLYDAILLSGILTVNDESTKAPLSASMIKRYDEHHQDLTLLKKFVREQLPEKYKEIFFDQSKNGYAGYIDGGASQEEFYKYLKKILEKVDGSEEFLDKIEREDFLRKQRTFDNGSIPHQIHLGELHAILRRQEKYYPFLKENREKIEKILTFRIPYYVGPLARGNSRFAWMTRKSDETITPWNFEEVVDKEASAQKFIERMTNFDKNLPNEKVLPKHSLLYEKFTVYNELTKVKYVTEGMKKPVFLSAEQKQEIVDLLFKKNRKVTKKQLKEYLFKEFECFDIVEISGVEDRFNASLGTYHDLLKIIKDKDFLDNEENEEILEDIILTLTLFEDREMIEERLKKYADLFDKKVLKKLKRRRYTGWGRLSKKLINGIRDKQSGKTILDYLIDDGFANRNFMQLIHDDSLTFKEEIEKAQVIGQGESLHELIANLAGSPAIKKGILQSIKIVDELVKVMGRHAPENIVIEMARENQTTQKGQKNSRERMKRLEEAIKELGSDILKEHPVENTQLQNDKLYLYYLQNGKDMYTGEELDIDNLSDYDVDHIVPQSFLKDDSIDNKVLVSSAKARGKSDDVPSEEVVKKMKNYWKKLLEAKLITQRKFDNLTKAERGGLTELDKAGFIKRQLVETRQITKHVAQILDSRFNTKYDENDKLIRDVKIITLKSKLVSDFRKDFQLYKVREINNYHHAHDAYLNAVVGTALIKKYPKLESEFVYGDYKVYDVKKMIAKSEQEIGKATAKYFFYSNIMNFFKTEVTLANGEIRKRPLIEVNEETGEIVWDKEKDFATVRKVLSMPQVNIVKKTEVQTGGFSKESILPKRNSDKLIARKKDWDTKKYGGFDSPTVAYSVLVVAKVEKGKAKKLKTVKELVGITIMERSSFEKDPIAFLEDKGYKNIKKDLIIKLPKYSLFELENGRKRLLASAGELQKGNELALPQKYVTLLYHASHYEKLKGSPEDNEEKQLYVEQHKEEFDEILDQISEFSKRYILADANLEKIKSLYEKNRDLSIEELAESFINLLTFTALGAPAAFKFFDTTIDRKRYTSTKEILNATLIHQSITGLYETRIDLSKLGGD
Experiment: cell_activity; +++; K562, second nick guide SEQ 380; PAM not stated
Protocol: The ability of the candidate endonucleases, including endonucleases 1-38 (CasEnds 1-38) (set forth in Table 1 and SEQ ID NOS: 1-38, respectively), to mediate target nucleic acid editing in cells was assessed by amplicon sequencing of the endogenous hemoglobin subunit beta (eHBB) gene, wherein the percent of amplicons displaying the intended edit is measured. The editing system is comprised of a template RNA (designed to introduce the Single Nucleotide Polymorphism), a second nick guide RNA, and a fusion protein consisting of retroviral reverse transcriptase and the individual subject Cas endonuclease.
Briefly, 250 ng of plasmid DNA encoding the subject fusion protein (containing one of the subject CasEnds), 250 ng each of plasmid DNA encoding the template RNA and the second nick guide RNA were added to 15 μL Lonza SF buffer containing 250,000 K562 cells. Nucleofection was mediated utilizing program FF-120-DA on a Lonza nucleofector. The day of nucleofection was marked as day 0. At day 3, the cells were harvested and subjected to lysis buffer treatment overnight. Genomic DNA was extracted and used for targeted amplicon sequencing to evaluate the performance of each Cas endonucleases based on their percent edit efficiencies.

B1: HBB template RNA ; HBB protospacer (ssRNA ; dsDNA)
RNA: CAUGGUGCACCUGACUCCUGGUUUUAGAGCUAGAAAUAGCAAGUUAAAAUAAGGCUAGUCCGUUAUCAACUUGAAAAAGUGGCACCGAGUCGGUGCACGGCAGACUUCUCUGCCGGAGUCAGGUGC
DNA 1: CATGGTGCACCTGACTCCTG
DNA 2: CAGGAGTCAGGTGCACCATG
activity: ≥ 100 % of reference
